The target in this experiment is SARS-CoV-2野生型(WT)活病毒的S蛋白 (hCoV-19/China/CAS-B001/2020) (SARS-CoV-2, UniProt P0DTC2 14-1273). The experiment is described as follows: cell-based or functional assay.

B1: 9K抗体 (antibody, V domains shown)
VH: EVQLVESGGGVVQPGRSLGLSCAVSGFTFSSYAMHWVRQAPGKGLEWVALISNDGTIDSYADSVKGRFTISRDNSKNTLYLRMSSLRAEDTAVYYCARDKEQLVPTFDYWGQGTLVTVSS
VL: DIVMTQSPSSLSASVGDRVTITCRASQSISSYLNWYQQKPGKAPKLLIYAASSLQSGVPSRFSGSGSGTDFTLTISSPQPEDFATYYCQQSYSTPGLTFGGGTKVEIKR
Turning to B1, the “中和滴度(半抑制浓度，IC50), live virus CPE assay on Vero E6 cells” value was determined as 49.4 µg/mL.

The record behind these values is patent publication CN113929774A (INST MICROBIOLOGY CAS, dated 2022).
